Patent US20230002480A1

Assays:
Experiment in all cases: cell-based or functional assay
[1] = biological target: HIV-1 Env pseudovirus CNE5 (HIV-1)
[2] = biological target: HIV-1 Env pseudovirus P0402_c2_11 (HIV-1)
[3] = biological target: HIV-1 Env pseudovirus T250-4 (HIV-1)
[4] = biological target: MuLV pseudovirus (Neg. Control) (MuLV)
[5] = biological target: HIV-1 Env of pseudovirus 1394C9G1(Rev-) (clade C (T/F)) (HIV-1)
[6] = biological target: HIV-1 Env of pseudovirus 1394C9G1 (Rev-) (HIV-1)
[7] = biological target: HIV-1 Env of pseudovirus CNE8 (clade CRF01_AE) (HIV-1)
[8] = biological target: HIV-1 Env of pseudovirus MS208A1 (HIV-1)

N49P19 (antibody)
IC50 [1]: 0.748 µg/mL
IC80 [1]: 3.29 µg/mL
MPI [1]: 100
IC50 [2]: 0.448 µg/mL
IC80 [2]: 2.63 µg/mL
MPI [2]: 100
IC50 [3]: > 50 µg/mL
IC80 [3]: > 50 µg/mL
MPI [3]: 7
IC50 [4]: > 50 µg/mL
IC80 [4]: > 50 µg/mL
MPI [4]: 0

N49P9 (antibody)
IC50 [2]: 0.028 µg/mL
IC80 [2]: 0.085 µg/mL
MPI [2]: 100
IC50 [3]: > 50 µg/mL
IC80 [3]: > 50 µg/mL
MPI [3]: 25
IC50 [4]: > 50 µg/mL
IC80 [4]: > 50 µg/mL
MPI [4]: 13

N49P7.2 (antibody)
IC50 [5]: > 50 µg/mL
IC80 [5]: > 50 µg/mL
MPI [5]: 20

N49P9.1 (antibody)
IC50 [1]: 0.183 µg/mL
IC80 [1]: 0.641 µg/mL
MPI [1]: 100
IC50 [2]: 0.06 µg/mL
IC80 [2]: 0.163 µg/mL
MPI [2]: 100
IC50 [3]: > 50 µg/mL
IC80 [3]: > 50 µg/mL
MPI [3]: 7

VRC01 (antibody)
IC50, titer in TZM.bl cells [6]: 0.36 µg/mL
IC80, titer in TZM.bl cells [6]: 1.28 µg/mL

10-1074 (antibody)
IC50, titer in TZM.bl cells [7]: > 50 µg/mL
IC80, titer in TZM.bl cells [7]: > 50 µg/mL

N49P18.1 (antibody)
IC50 [5]: > 50 µg/mL
IC80 [5]: > 50 µg/mL
MPI [5]: 17

N49P7 (antibody)
neutralization IC50 [8]: 0.12 µg/mL
neutralization IC80 [8]: 0.479 µg/mL
neutralization MPI [8]: 100

N49P7.1 (antibody)
neutralization IC50 [8]: 0.12 µg/mL
neutralization IC80 [8]: 0.431 µg/mL
neutralization MPI [8]: 100

N49P11 (antibody)
IC50 [5]: 6.13 µg/mL
IC80 [5]: 22.3 µg/mL
MPI [5]: 100
